Test results published in publication PMC5053136 (Acta Crystallographica. Section D, Structural Biology, 2016).

Molecular target: the molecule itself
Assay: SAXS with online ion-exchange chromatography (IEC-SAXS)

B1: D5_(323–785), the D5N and helicase domains of the Vaccinia virus helicase–primase D5 (domain or fragment)
chain: GNKLFNIAQRILDTNSVLLTERGDYIVWINNSWKFNSEEPLITKLILSIRHQLPKEYSSELLCPRKRKTVEANIRDMLVDSVETDTYPDKLPFKNGVLDLVDGMFYSGDDAKKYTCTVSTGFKFDDTKFVEDSPEMEELMNIINDIQPLTDENKKNRELYEKTLSSCLCGATKGCLTFFFGETATGKSTTKRLLKSAIGDLFVETGQTILTDVLDKGPNPFIANMHLKRSVFCSELPDFACSGSKKIRSDNIKKLTEPCVIGRPCFSNKINNRNHATIIIDTNYKPVFDRIDNALMRRIAVVRFRTHFSQPSGREAAENNDAYDKVKLLDEGLDGKIQNNRYRFAFLYLLVKWYKKYHVPIMKLYPTPEEIPDFAFYLKIGTLLVSSSVKHIPLMTDLSKKGYILYDNVVTLPLTTFQQKISKYFNSRLFGHDIESFINRHKKFANVSDEYLQYIFIEDISSP
notes: also called D5R fragment
For B1, the “stoichiometry N” value was 6.
